Columns and labels:
[1] = molecular target: plasminogen-binding group A streptococcal M-protein (Streptococcus pyogenes (GAS isolate AP53)); experiment: SPR; PAM amine-coupled on a CM-5 chip (up to 250 RU); Pg flowed at 0-50 nM (hPg[D219N] up to 300 nM); 25 °C; HBS-EP+ (10 mM Na-Hepes/150 mM NaCl/3 mM EDTA/0.05% polysorbate 20, pH 7.4); 1:1 Langmuir fit; KD from koff/kon
[2] = molecular target: hHC-mLC (human heavy chain-mouse light chain) chimeric plasminogen (human | mouse) (UniProt P00747); experiment: SPR; each Pg amine-coupled on a CM-5 chip (~1200 RU); SK1 flowed at 0-0.25 uM, SK2b at 0-2 uM; 25 °C; HBS-EP+ with 50 uM p-nitrophenyl-p'-guanidinobenzoate; 1:1 Langmuir fit; KD from koff/kon
[3] = molecular target: human plasminogen (human); experiment: as above
[4] = molecular target: mouse plasminogen (mouse); experiment: as above
[5] = molecular target: hPg[D219N] (human Pg with a [D219N] mutation) (human); experiment: as above
[6] = molecular target: mHC-hLC (mouse heavy chain-human light chain) chimeric plasminogen (mouse | human) (UniProt P00747); experiment: as above
[7] = molecular target: human plasminogen (human)
[8] = molecular target: hPg[D219N] (human Pg with a [D219N] mutation) (human)
[9] = molecular target: mHC-hLC (mouse heavy chain-human light chain) chimeric plasminogen (mouse | human) (UniProt P00747)

plasminogen-binding group A streptococcal M-protein (Streptococcus pyogenes (GAS isolate AP53)), sequence (P49054 30-380 limits assumed): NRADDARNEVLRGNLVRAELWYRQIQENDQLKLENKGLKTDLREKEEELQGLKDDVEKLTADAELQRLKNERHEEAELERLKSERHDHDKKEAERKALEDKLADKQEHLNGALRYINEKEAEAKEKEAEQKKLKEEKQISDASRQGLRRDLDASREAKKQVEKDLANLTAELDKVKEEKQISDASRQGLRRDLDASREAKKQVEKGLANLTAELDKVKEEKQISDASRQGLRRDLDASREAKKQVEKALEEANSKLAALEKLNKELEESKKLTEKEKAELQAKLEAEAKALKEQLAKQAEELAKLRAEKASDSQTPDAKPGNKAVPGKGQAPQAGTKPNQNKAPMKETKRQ

Substance | Kd [1] | koff [1] | kon [1] | Kd [2] | koff [2] | kon [2] | Kd [3] | koff [3] | kon [3] | Kd [4] | koff [4] | kon [4] | Kd [5] | koff [5] | kon [5] | Kd [6] | koff [6] | kon [6] | also measured
hHC-mLC (human heavy chain-mouse light chain) chimeric plasminogen (from UniProt P00747 20-580) | 3 nM | 0.0012 s⁻¹ | 390000 M⁻¹ s⁻¹ |  |  |  |  |  |  |  |  |  |  |  |  |  |  |  | 
human plasminogen (natural protein) | 2.2 nM | 0.0006 s⁻¹ | 270000 M⁻¹ s⁻¹ |  |  |  |  |  |  |  |  |  |  |  |  |  |  |  | 
mHC-hLC (mouse heavy chain-human light chain) chimeric plasminogen (from UniProt P00747 581-810) | 16 nM | 0.0038 s⁻¹ | 240000 M⁻¹ s⁻¹ |  |  |  |  |  |  |  |  |  |  |  |  |  |  |  | 
mouse plasminogen (natural protein) | 14 nM | 0.0033 s⁻¹ | 260000 M⁻¹ s⁻¹ |  |  |  |  |  |  |  |  |  |  |  |  |  |  |  | 
streptokinase SK1 (natural protein) |  |  |  | 1.9 nM | 0.0059 s⁻¹ | 3.03e+06 M⁻¹ s⁻¹ | 0.9 nM | 0.0015 s⁻¹ | 1.65e+06 M⁻¹ s⁻¹ | 6.1 nM | 0.0102 s⁻¹ | 1.65e+06 M⁻¹ s⁻¹ | 0.4 nM | 0.0005 s⁻¹ | 1.48e+06 M⁻¹ s⁻¹ | 1 nM | 0.0016 s⁻¹ | 1.57e+06 M⁻¹ s⁻¹ | 
streptokinase SK2b (natural protein) |  |  |  | 187 nM | 0.0014 s⁻¹ | 8000 M⁻¹ s⁻¹ | 85 nM | 0.0015 s⁻¹ | 18000 M⁻¹ s⁻¹ | 240 nM | 0.0016 s⁻¹ | 6000 M⁻¹ s⁻¹ | 73 nM | 0.0012 s⁻¹ | 17000 M⁻¹ s⁻¹ | 202 nM | 0.0016 s⁻¹ | 8000 M⁻¹ s⁻¹ | % active site formation in the SK2b-Pg complex (MUGB cleavage), with saturating PAM (5 uM) [7]: 78%; % active site formation in the SK2b-Pg complex (MUGB cleavage), without PAM [7]: 19%; % active site formation in the SK2b-Pg complex (MUGB cleavage), with saturating PAM (5 uM) [8]: 86%; % active site formation in the SK2b-Pg complex (MUGB cleavage), without PAM [8]: 66%; % active site formation in the SK2b-Pg complex (MUGB cleavage), with saturating PAM (5 uM) [9]: 33%; % active site formation in the SK2b-Pg complex (MUGB cleavage), without PAM [9]: 18%
